Kd data for one molecule are collected here from paper PMC3266742 (Molecular Cell, 2010).

This experiment addresses ubiquitin (mono-Ub), untagged, purified (UniProt P0CG47 1-76). The experiment in a line: NMR titration.

B1: 6xHis-tagged Doa1 β-Prp (domain or fragment, S. cerevisiae)
chain: GYQLSATLKGHDQDVRDVVAVDDSKVASVSRDGTVRLWSKDDQWLGTVVYTGQGFLNSVCYDSEKELLLFGGKDTMINGVPLFATSGEDPLYTLIGHQGNVCSLSFQDGVVISGSWDKTAKVWKEGSLVYNLQAHNASVWDAKVVSFSENKFLTASADKTIKLWQNDKVIKTFSGIHNDVVRHLAVVDDGHFISCSNDGLIKLVDMHTGDVLRTYEGHESFVYCIKLLPNGDIVSCGEDRTVRIWSKENGSLKQVITLPAISIWSVDCMSNGDIIVGSSDNLVRIFSQEKSRWASEDEI
On to B1, for which the affinity, expressed as Kd, was 224 µM.

The term Kd denotes the free concentration of one partner at which half of the binding sites on the other are occupied at equilibrium, for simple one-to-one binding. The low end stands for a tighter complex, the high end for a looser complex.
